For one assay, the target named is T1, Smad 2 (UniProt Q15796 2-467, limits assumed).
T1 construct: Detected by a bought antibody in the pull-down
Briefly: GST-TRAP pull-down from lysate of cells without HIS-TRIP, Western.

For another assay, the target named is T2, type II TGFβ receptor (UniProt P37173 23-567, limits assumed).
T2 construct: From lysate of transfected cells; also called TGFβRII; TGFβ type II receptor
The assay is described as above.

The target of assay [1] is T3, purified type V tartrate resistant acid phosphatase (TRAP), also known as uteroferrin (UniProt P09889 22-340, limits assumed).
T3 construct: Purified protein used as immobilised bait, in ELISA, Scatchard, Far-Western and GST pull-down; also called type V TRAP; purified TRAP
T3 sequence (looked up): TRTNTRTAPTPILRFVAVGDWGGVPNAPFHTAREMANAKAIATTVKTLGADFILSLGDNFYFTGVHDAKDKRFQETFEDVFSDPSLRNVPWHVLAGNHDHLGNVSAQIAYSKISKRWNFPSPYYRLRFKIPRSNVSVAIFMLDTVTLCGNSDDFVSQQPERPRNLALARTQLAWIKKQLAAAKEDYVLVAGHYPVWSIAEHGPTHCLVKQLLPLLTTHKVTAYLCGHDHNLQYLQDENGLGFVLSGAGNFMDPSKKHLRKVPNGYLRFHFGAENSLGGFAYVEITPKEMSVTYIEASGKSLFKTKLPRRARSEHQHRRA
The experiment in a line: modified phage ELISA on immobilised TRAP, antibody to the phage coat.
Source text: The binding was compared to wild type phage containing no expressed oligopeptides.

The target of assay [2] is T3, purified type V tartrate resistant acid …. The experiment in a line: M13 random 12-mer phage display, three rounds of bio-panning on immobilised TRAP.
Source text: After three rounds of bio-panning, elution and amplification 44 phage clones were selected at random and sequenced.
The next assay deals with T4, RNase A (UniProt P61823 27-150).
T4 construct: Control
T4 sequence (looked up): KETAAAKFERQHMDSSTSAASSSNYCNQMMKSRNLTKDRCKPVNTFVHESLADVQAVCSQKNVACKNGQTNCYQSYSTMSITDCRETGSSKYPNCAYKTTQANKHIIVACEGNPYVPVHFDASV
Briefly: Far-Western, proteins on membrane probed with Clone 5 phage.

The target of a further assay is T5, bovine serum albumin (bovine, UniProt P02769 25-607).
T5 construct: Control; also called BSA
Described as above.

The target in assay [3] is T3, purified type V tartrate resistant acid …. The experiment in a line: Scatchard-type analysis, immobilised TRAP and increasing phage titer, bound phage counted by plaque assay.
Procedure: After a one hour room temperature incubation, each well was washed with PBS with 0.5% [v/v] Tween 20 four times. The bound phage where then amplified directly in the wells by the addition of 100 ul of log-phase ER2537 (M13 bacteria host). The number of phage in each well was then determined with a standard plaque assay. […] The bound and free fraction of phage were then determined.
Assay [4] has as its target T6, VP-16-AD-GPC412 (VP-16-AD fused to GPC4 deficient in the 12 amino acids of Clone 5) (human, UniProt O75487 19-556).
T6 construct: also called 12 amino acid deficient version of GPC4
T6 sequence: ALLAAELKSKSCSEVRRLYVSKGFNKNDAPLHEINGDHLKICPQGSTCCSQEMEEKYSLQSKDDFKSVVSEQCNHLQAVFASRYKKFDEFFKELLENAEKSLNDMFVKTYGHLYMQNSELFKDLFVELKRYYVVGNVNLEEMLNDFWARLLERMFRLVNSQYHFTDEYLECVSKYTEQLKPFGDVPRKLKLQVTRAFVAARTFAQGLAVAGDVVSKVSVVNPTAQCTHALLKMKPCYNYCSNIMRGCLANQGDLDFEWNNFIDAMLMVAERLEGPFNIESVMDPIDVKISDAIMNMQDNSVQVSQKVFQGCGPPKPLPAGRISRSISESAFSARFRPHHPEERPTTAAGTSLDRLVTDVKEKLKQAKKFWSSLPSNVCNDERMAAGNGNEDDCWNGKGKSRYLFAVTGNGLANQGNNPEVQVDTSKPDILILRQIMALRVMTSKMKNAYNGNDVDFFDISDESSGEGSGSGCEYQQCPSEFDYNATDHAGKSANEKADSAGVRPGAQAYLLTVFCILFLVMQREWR
The experiment in a line: mammalian two-hybrid luciferase assay.

Ends that are not written are not given here.

T1 sequence (Q15796 2-467 limits assumed): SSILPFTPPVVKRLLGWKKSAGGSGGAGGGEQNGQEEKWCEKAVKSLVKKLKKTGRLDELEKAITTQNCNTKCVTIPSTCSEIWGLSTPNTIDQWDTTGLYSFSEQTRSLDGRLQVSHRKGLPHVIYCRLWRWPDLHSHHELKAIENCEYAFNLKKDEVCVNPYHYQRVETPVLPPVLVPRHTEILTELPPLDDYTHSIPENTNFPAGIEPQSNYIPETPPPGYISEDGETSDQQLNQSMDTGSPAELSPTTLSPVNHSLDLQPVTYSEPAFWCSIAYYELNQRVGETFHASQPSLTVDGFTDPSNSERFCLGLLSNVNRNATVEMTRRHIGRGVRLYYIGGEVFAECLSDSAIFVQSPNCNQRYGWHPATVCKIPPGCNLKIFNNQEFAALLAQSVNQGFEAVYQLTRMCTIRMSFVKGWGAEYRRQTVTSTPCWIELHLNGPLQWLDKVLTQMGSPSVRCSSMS
T5 sequence (P02769 25-607 limits assumed): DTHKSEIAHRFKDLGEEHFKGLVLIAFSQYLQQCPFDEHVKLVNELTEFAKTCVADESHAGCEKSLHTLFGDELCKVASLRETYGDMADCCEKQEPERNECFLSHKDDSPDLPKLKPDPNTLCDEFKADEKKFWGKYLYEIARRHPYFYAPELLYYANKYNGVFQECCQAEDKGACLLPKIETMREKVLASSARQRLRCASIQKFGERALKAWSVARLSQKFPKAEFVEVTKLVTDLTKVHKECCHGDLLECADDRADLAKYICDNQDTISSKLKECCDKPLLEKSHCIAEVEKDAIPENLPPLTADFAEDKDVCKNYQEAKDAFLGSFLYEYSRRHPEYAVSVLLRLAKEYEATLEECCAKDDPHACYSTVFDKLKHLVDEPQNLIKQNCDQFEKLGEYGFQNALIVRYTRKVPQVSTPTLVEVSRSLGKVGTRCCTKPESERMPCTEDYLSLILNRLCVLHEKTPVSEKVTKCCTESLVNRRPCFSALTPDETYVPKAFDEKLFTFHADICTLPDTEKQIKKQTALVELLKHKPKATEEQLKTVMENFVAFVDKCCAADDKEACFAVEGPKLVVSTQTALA
T2 sequence (P37173 23-567 limits assumed): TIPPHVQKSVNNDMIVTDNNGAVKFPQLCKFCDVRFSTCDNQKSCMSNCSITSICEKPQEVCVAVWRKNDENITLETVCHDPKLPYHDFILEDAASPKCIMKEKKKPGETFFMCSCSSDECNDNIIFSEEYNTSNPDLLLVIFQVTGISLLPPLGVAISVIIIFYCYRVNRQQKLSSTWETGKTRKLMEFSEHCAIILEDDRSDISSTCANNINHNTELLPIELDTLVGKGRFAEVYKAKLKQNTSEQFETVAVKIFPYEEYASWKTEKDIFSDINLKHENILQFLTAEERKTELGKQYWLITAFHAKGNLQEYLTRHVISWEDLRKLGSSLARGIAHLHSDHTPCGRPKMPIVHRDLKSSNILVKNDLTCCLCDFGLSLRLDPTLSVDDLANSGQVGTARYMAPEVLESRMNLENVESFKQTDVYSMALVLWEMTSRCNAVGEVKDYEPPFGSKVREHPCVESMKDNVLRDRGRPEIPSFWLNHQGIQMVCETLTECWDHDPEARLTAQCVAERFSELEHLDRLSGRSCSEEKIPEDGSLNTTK
Procedure for RNase A: (§1) They were then transferred to PVDF membranes (NEN) and incubated with 10¹⁰ phage particles from selected clones at 4° C. for overnight. The membrane was washed in PBS with 0.5% [v/v] […] An anti-M13 phage peroxidase-conjugated antibody at a dilution of 1:15000 was added and gently swirled at room temperature for an hour. […] Detection of the phage/antibody complex was accomplished using ECL-plus (Amersham) with the membrane being exposed to Kodak Biomax MR film for 30 seconds.
Procedure for Smad 2: (§2) The GST fusion proteins were pulled down by glutathione coated beads (Amersham) in 4° C. for 1 h then washed three times with NETN buffer (20 mM Tris/pH 8.0, 100 mM NaCl, 6 mM MgCl₂, 1 mM EDTA, 0.5% NP-40, 1 mM DTT, 8% glycerol, and 1 mM PMSF). The purified GST fusion proteins and beads were suspended in 100 μl NETN buffer. […] After incubating for 1 h at 4° C. with agitation, the glutathione-coated beads were washed with NETN buffer four times then the protein complexes were loaded in SDS-PAGE and visualized by using the ECL-plus method.
(§3) Detection of HIS-TRIP was performed with anti-HIS antibodies and detection of the TGFβRII and Smad 2 were performed with a commercially available antibodies. For these studies, all cells were transfected with the TGFβRII. […] The cells were lysed and the lysate incubated with glutathione beads. The beads were extensively washed and the proteins interacting with the beads were analyzed with Western analysis.
Procedure for bovine serum albumin: as §1
Procedure for type II TGFβ receptor: as §2, §3

B1: GST-TRAP fusion protein (other)
chain: ATPALRFVAVGDWGGVPNAPFHTAREMANAKEIARTVQILGADFILSLGDNFYFTGVQDINDKRFQETFEDVFSDRSLRKVPWYVLAGNHDHLGNVSAQIAYSKISKRWNFPSPFYRLHFKIPQTNVSVAIFMLDTVTLCGNSDDFLSQQPERPRDVKLARTQLSWLKKQLAAAREDYVLVAGHYPVWSIAEHGPTHCLVKQLRPLLATYGVTAYLCGHDHNLQYLQDENGVGYVLSGAGNFMDPSKRHQRKVPNGYLRFHYGTEDSLGGFAYVEISSKEMTVTYIEASGKSLFKTRLPRRARP
notes: also called 'GST' tagged TRAP; recombinant GST-TRAP; not shown: glutathione S-transferase tag (Amersham Pharmacia GST system)
For the molecule B1, the binding result with Smad 2 and with type II TGFβ receptor was “no binding” each time.

B2: M13 phage clone displaying SEQ ID NO:22 (peptide)
peptide: TPSLPPTMFRLT
notes: also called ID No. 22; not shown: M13 phage coat protein carrying the random 12-mer; not specified
Turning to B2, the “fold increase in affinity for TRAP over wild type phage” value in assay [1] was 40 fold. In addition, the “Fre (frequency among 44 sequenced clones after bio-panning with TRAP)” value (shortened to “Fre”) in assay [2] is 4 of 44 clones.

B3: M13 phage clone displaying SEQ ID NO:21 (peptide)
peptide: SQWHPRSASYPM
notes: also called ID No. 21; not shown: M13 phage coat protein carrying the random 12-mer; not specified
B3: the “fold increase in affinity for TRAP over wild type phage” value in assay [1] came to 40 fold. In assay [2], the “Fre” value was 4 of 44 clones.

B4: Clone 5 phage (M13 phage displaying the 12-mer TPLSYLKGLVTV) (peptide)
peptide: TPLSYLKGLVTV
modifications: also: displayed on M13 phage coat protein (protein and linker not given here)
notes: also called GPC4 phage (Clone 5); ID No. 23; not shown: M13 phage coat protein carrying the random 12-mer
Consider B4, for which the binding result with RNase A and with bovine serum albumin was “no binding (tested: 5 ug loaded)” throughout. In assay [3], binding was characterised by a dissociation constant (Kd) of 0.11 nM. In addition, the “Fre” value in assay [2] was 15 of 44 clones.

B5: GAL-4-BD-TRAP fusion protein (other)
chain: MKLLSSIEQACDICRLKKLKCSKEKPKCAKCLKNNWECRYSPKTKRSPLTRAHLTEVESRLERLEQLFLLIFPREDLDMILKMDSLQDIKALLTGLFVQDNVNKDAVTDRLASVETDMPLTLRQHRISATSSSEESSNKGQRQLTVSATPALRFVAVGDWGGVPNAPFHTAREMANAKEIARTVQILGADFILSLGDNFYFTGVQDINDKRFQETFEDVFSDRSLRKVPWYVLAGNHDHLGNVSAQIAYSKISKRWNFPSPFYRLHFKIPQTNVSVAIFMLDTVTLCGNSDDFLSQQPERPRDVKLARTQLSWLKKQLAAAREDYVLVAGHYPVWSIAEHGPTHCLVKQLRPLLATYGVTAYLCGHDHNLQYLQDENGVGYVLSGAGNFMDPSKRHQRKVPNGYLRFHYGTEDSLGGFAYVEISSKEMTVTYIEASGKSLFKTRLPRRARP
notes: Expressed inside transfected cells
Turning to B5, in assay [4], the binding result is “no binding”.

Values taken from patent US20050112168A1 (UNIVERSITY OF ROCHESTER, published 2005).
